Residue numbers refer to the chain shown, from its start. Starred links: 1 amine or outer side, 2 acyl side, 3 side chain; linkers in the order of their positions; H or OH if unused. Non-standard residues stand in square brackets, D forms with d. Groups on a side chain read outwards from the residue. No end group written: not given here. *: point of attachment. C20 diacid = O=C(O)CCCCCCCCCCCCCCCCCCC(=O)*; C18 diacid = O=C(O)CCCCCCCCCCCCCCCCC(=O)*; γGlu = O=C(O)[C@H](CCC(=O)[*:2])N[*:1]; AEEA = NCCOCCOCC(=O)O; Aib = CC(C)(N)C(=O)O
T1: GIP receptor (human (printed as hGIPR), UniProt P48546 22-466)
T1 sequence (looked up): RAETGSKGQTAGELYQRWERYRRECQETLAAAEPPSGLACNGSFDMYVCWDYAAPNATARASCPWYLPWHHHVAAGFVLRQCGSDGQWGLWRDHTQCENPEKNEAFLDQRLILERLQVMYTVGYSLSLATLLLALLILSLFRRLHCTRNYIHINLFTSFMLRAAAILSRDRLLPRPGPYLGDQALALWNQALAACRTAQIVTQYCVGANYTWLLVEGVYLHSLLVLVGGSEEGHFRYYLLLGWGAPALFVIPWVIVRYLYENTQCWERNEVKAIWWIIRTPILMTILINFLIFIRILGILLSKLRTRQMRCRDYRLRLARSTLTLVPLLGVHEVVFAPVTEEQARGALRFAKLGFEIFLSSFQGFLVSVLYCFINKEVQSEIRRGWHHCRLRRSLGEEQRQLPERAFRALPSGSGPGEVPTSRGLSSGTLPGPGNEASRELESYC

T2: NPY2 receptor (human (printed as hNPY2R), UniProt P49146 1-381)
T2 sequence (looked up): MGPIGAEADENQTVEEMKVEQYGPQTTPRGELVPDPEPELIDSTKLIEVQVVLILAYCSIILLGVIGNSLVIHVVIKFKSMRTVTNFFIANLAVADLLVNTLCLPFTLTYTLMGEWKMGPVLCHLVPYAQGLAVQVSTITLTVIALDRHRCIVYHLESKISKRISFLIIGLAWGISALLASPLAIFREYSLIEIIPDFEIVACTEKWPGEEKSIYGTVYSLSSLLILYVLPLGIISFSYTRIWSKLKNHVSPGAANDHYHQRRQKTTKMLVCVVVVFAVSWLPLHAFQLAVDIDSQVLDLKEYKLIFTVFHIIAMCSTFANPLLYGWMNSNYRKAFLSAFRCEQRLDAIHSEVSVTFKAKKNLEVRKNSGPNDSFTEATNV

B1: Compound 219 (peptide)
peptide: Y[Aib]EGTFTSDYSI[Aib]LEKQAE[Aib]AFVQWLIK([AEEA-AEEA-γGlu-γGlu-γGlu-γGlu-C20 diacid])GGPSEGASLRHYYNWLTRQRY-NH2
modifications: also: TFA salt
B2: Compound 202 (peptide)
peptide: Y[Aib]EGTFTSDYSI[Aib]LEKQAQ[Aib]EFVQWLIK([γGlu-γGlu-γGlu-γGlu-C18 diacid])GGPSEGASLRHYYNWLTRQRY-NH2
modifications: also: TFA salt
B3: Compound 204 (peptide)
peptide: Y[Aib]EGTFTSDYSI[Aib]LEKQAQ[Aib]AFVEWLIKGGPSSGASLRHYYNW[dD]TRQRY-NH2
modifications: not fully specified (residue 28); also: TFA salt
B4: Compound 223 (peptide)
peptide: Y[Aib]EGTFTSDYSI[Aib]LEKQAQ[Aib]AFVQWLIK([γGlu-γGlu-γGlu-γGlu-γGlu-γGlu-C20 diacid])GGPSEGASLRHYYNWLTRQRY-NH2
modifications: also: TFA salt
B5: Compound 203 (peptide)
peptide: Y[Aib]EGTFTSDYSI[Aib]LEKQAQ[Aib]AFVEWLIKGGPSYYASLRHYYNWLTRQRY-NH2
modifications: not fully specified (residue 28); also: TFA salt
B6: Compound 208 (peptide)
peptide: YXEGTFTSDYSIXLEKQAQXAFVEWLIKGGPSSGASLRHYYNWLTRXRY
modifications: Aib at 2, 13, 20; bHGln (beta-homo-L-glutamine) at 47; K28 side chain carries C20DA-gGlu-gGlu-gGlu-gGlu-gGlu-gGlu-eLys; C-terminal amide
B7: Compound 209 (peptide)
peptide: B6 peptide with K16L, X47Q
modifications: Aib at 2, 13, 20; K28 side chain carries C20DA-gGlu-gGlu-gGlu-gGlu-gGlu-gGlu-eLys; C-terminal amide
B8: Compound 210 (peptide)
peptide: B6 peptide with R38L, X47Q
modifications: Aib at 2, 13, 20; K28 side chain carries C20DA-gGlu-gGlu-gGlu-gGlu-gGlu-gGlu-eLys; C-terminal amide
B9: Compound 218 (peptide)
peptide: B6 peptide with W43X, X47Q
modifications: Aib at 2, 13, 20, 43; K28 side chain carries C20DA-gGlu-gGlu-gGlu-gGlu-gGlu-gGlu-eLys; C-terminal amide
B10: Compound 214 (peptide)
peptide: B6 peptide with X47Q
modifications: Aib at 2, 13, 20; D-Tyr at 49; K28 side chain carries C20DA-gGlu-gGlu-gGlu-gGlu-gGlu-gGlu-eLys; C-terminal amide
B11: Compound 215 (peptide)
peptide: B6 peptide with A21E, X47Q
modifications: Aib at 2, 13, 20; K28 side chain carries C20DA-gGlu-gGlu-gGlu-gGlu-gGlu-gGlu-eLys; C-terminal amide

Target: GLP-1 receptor (human (printed as hGLP1R), UniProt P43220 24-463)
Assay: cell-based or functional assay

Binder	EC50 hGLP1R 0.5% hP (CreLuc) [nM]	EC50 hGLP1R 100% hP (CreLuc) [nM]
B1	0.61	16.1
B2	0.21	10.4
B3	0.12	3.14
B4	0.18	4.39
B5	0.33	27
B6	0.11	1.51
B7	0.48	16.7
B8	0.19	3.39
B9	0.16	3.3
B10	0.19	2.65
B11	0.66	14

Target: T1, GIP receptor
Assay: cell-based or functional assay

Binder	EC50 hGIPR 0.5% hP (CreLuc) [nM]	EC50 hGIPR 100% hP (CreLuc) [nM]
B1	0.46	2.43
B2	0.26	1.81
B3	0.35	2.88
B4	0.39	3.16
B5	0.5	12.4
B6	0.07	0.81
B7	0.81	8.57
B8	0.28	2.3
B9	0.36	2.35
B10	0.23	1.81
B11	0.5	2.94

Target: T2, NPY2 receptor
Assay: cell-based or functional assay

Binder	EC50 hNPY2R 0.5% hP (CreLuc) [nM]	EC50 hNPY2R 100% hP (CreLuc) [nM]
B1	12.8	43.4
B2	12.9	64.5
B3	> 99.9	> 999
B4	13.2	57.5
B5	9.07	54.1
B6	> 100	> 1000
B7	35.2	171
B8	54.1	430
B9	87.4	623
B10	> 99.9	283
B11	12.4	22.5
